# Test results published in article PMC3399781 (Structure (London, England : 1993), 2010).
# Biological target: the molecule itself
# Assay: AUC
protein,measurement,value
2GS mGRFT (GRFT with GSGS inserted between Ser16 and Gly17) (natural protein) SLTHRKFGGSGGSPFSGSGSGLSSIAVRSGSYLDAIIIDGVHHGGSGGNLSPTFTFGSGEYISNMTIRSGDYIDNISFETNMGRRFGPYGGSGGSANTLSNVKVIQINGSAGDYLDSLDIYYEQY,Kd,1.17 mM
